The values below come from the supplement of paper PMC12042874.

± gives the uncertainty stated by the source.

A short description of the data set: amyloid nucleation score (Sup35N fusion, yeast selection) (log enrichment); library NNK1; higher = more nucleation; inactive = no reads after selection. In a few lines:
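Yeast lacking psi expressed peptides of 20 random codons fused to Sup35N, received 100 μM copper sulfate for 24 hours, and were then grown for 7 days at 30°C on medium lacking adenine and uracil. Illumina sequencing of input and output plasmid inserts provided the reads. Nucleation scores are DiMSum log enrichments of output over input, centred on the mode of non-aggregating sequences. Any sequence with under 100 input reads was excluded.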
QMVQYSRKSITFLGRPVLFS came in with an amyloid nucleation score of 0.291 ± 0.55.
For QMYVVMLVGVLFCWGTPYRL, the amyloid nucleation score stood at 0.301 ± 0.39.
The value for QNGRASVYFTGLAILYILID was 1.02 ± 0.25; that for QNKSWAG was -0.509 ± 1.7.
The value for QNPLMRNYNPRFCHCGLSAP was “inactive”; that for QPALPSGPVDQS was 0.42 ± 0.35.
The value for QPILPSPIRWFEESMDLVWG was -0.542 ± 0.4.
Substance QQYSVDSRCTTVRYGLYMDM registered an amyloid nucleation score of 0.662 ± 1.1.
The value for QRFWYTGFGSVPIQDIEVGI was 0.328 ± 0.32; that for QRISWDFSWCRASWMPNLR was 0.062 ± 0.34.
Then QRLCNQWMSDKLQY, with 1.84 ± 0.67; and QRWLWKRNLDCQRDTSL, with 0.514 ± 0.75.
The value for QRYKFLCLRRVENFGGYMSA was 2.54 ± 0.24; that for QSDMGIIP was 0.153 ± 0.47.
The substance QSGVNNTVLVCIVQSFSSLM had an amyloid nucleation score of 5.5 ± 0.082.
QSNPSPISNMLNPDCLYKNG displayed an amyloid nucleation score of -0.013 ± 0.2.
The value for QSSLMLYDERRSNWIKHLAT was -0.232 ± 0.37; that for QSTMIASMRYSFFACAVLYI was 0.074 ± 0.51.
The value for QTDSTVGD was -0.522 ± 1.4; that for QTRRYTVNCLL was “inactive”; that for QYCAKSVSFRWCHLSRWLMP was 0.401 ± 0.71.
As for QYMKLGFNPCKTMVVLFLCC, the amyloid nucleation score came out at 4.16 ± 0.062.
QYTAHMLCLALLYRFEWNEN registered an amyloid nucleation score of 2.24 ± 0.27.
As to QYVMSLITVQQYRSEFSAVM, the amyloid nucleation score was found to be 0.263 ± 0.25.
Take RACLQRWPNMRITCC: the amyloid nucleation score is -0.005 ± 1.2.
Then RAELTSTTISTASVFGCGIM, with 5.17 ± 0.07; and RAGTLLPVLLDKVKRCSKLW, with 0.222 ± 0.7.
Substance RAKSGLMNGDGYRNVAQGDD showed an amyloid nucleation score of 0.155 ± 0.43.
With RALALEPNSI, the amyloid nucleation score entry is “inactive”.
The value for RAPTFMMNLDG was 3.34 ± 0.12; that for RARDV was 0.167 ± 0.38; that for RASKFGLLGHMAYSIYHYVM was -0.974 ± 1.7.
RASRMHGQGPLKNVWEGLYQ displayed an amyloid nucleation score of 0.119 ± 0.98.
Then RASWNMNFSNFFDKMCRIPS, with -0.334 ± 0.35; and RAVANCVLSLCYWNCCLYRY, with -0.343 ± 1.4; and RAYTCRCEFAQGFVYNLIFS, with 5.4 ± 0.079.
RCCLVMCWCLCKNYSN gave an amyloid nucleation score of 5.38 ± 0.049.
The substance RCDNLF returned an amyloid nucleation score of 0.037 ± 0.39.
Then RCGCRRVVFDGFIGIGALRA, with 0.298 ± 0.6; and RCGGSRDSACLANWIQFTMQ, with 4.67 ± 0.064; and RCGVRLF, with -1.31 ± 1.2.
Then RCILRSTSFRAVAWM, with 0.771 ± 0.67.
Then RCINGNIYNKSW, with 0.18 ± 0.26; and RCLRTALCISMSGWCSYSNW, with 1.27 ± 0.15; and RCMDHCSLDIQVRVLCKVSV, with -0.709 ± 0.66.
In turn, RCNAKWL displayed an amyloid nucleation score of -0.426 ± 0.77.
The value for RCSCFY was “inactive”; that for RCSQVGEFHFGPTDARLMGK was 0.245 ± 0.39; that for RCSSGSRICAMRLLGYSSYI was -0.066 ± 0.75.
Then RCTSSPFVVL, with 0.668 ± 0.82.
Then RCYSFRSHRRNFNIYVLSKW, with “inactive”; and RDEVGIVHRMSEPKRYGGIK, with -1.11 ± 1.5; and RDGAVFYFMEVRVSYRFLTN, with -0.392 ± 0.7.
Take RDGPSK: the amyloid nucleation score was -0.422 ± 0.33.
RDKLYA displayed an amyloid nucleation score of -1.2 ± 1.5.
The value for RDLAPVLRYVPNESKAGVGV was -0.626 ± 0.53.
The value for RDVTCRLYLMLWS was -0.641 ± 1.5; that for REPACYSKVTLADKYRLVSE was 1.26 ± 0.74.
Regarding RESVINIR, the amyloid nucleation score worked out at 1.28 ± 0.46.
Then RFETIDANKVILSVKCRWAK, with 2.56 ± 0.17.
Regarding RFFSGLIVHNLLCLCRPPNP, the amyloid nucleation score was found to be 6.58 ± 0.078.
The value for RFIFIQRVNRVFLQDSWKMV was 6.39 ± 0.075.
In turn, RFLIGWFFSFLGCFLKRDSW had an amyloid nucleation score of -0.571 ± 1.6.
The value for RFNLCNGFMGIAKNCICIWT was 1.41 ± 0.45; that for RFNTWFVNYLCHPLYSLEG was 5.55 ± 0.064; that for RFRRSLLMYYGTTSVGLLRP was 0.664 ± 1.2.
The value for RFSDT was -0.568 ± 0.3; that for RFSGVFSDQLVLSD was -0.713 ± 0.68.
In the case of RFVCLLIGVSQLPQLRCEYR, the amyloid nucleation score was -1.17 ± 0.47.
Then RFVWVMSYGPSTYILHVWFV, with 0.248 ± 0.39; and RFWVYGKGILMVLGAFFCL, with 0.07 ± 0.56; and RGAPKLCTDIDWARYFNRGL, with -0.407 ± 0.4.
The substance RGCRGSRQSVGSKR showed an amyloid nucleation score of -0.166 ± 0.31.
RGHLLGFMRRLCFIGLR registered an amyloid nucleation score of -0.372 ± 0.64.
The value for RGIKCPVSCKIASSRREWWV was 0.789 ± 0.37; that for RGMKCIMSSKDVGS was -1.13 ± 2.4; that for RGMSTNSRECHNMCFQVGV was 0.228 ± 0.49.
The value for RGNACVT was 0.598 ± 0.34; that for RGNLAGLVLMNRHGCV was 0.078 ± 0.4.
The substance RGSPFGVSM displayed an amyloid nucleation score of 5.4 ± 0.091.
Then RGSQTLGCVSGLHHHRFAIL, with -1.14 ± 0.63; and RGVCSRDVWARLVELTAEMG, with 0.459 ± 0.93.
Then RGWGELVVVNHLLRRGGGEG, with -0.029 ± 0.69; and RGYAVNAGYSVCMYWLGTLL, with 0.695 ± 0.53; and RHHCKTCASYCFRIFIAEMM, with 0.216 ± 0.42.
The value for RHSKMVQLRLSTYGVET was “inactive”.
In turn, RIANQ registered an amyloid nucleation score of -0.086 ± 0.51.
The value for RIENDGLEMLGIINQQSCGS was 4.01 ± 0.11.
Then RIGNGVLKDYRLFFFETSFT, with -0.727 ± 0.36.
Then RIKRILFFYSVRIWDLSDG, with 2.52 ± 0.12.
Substance RIKVYALMHRSGGICTFIR returned an amyloid nucleation score of 0.04 ± 0.21.
For the substance RILGYRIMTNWGVGSYKPGR, the amyloid nucleation score is -0.41 ± 0.46.
Then RILVVNWVYPSTMNGVSQWS, with 2.63 ± 0.2; and RILWSLYGGSLFPYVSVGWR, with 0.552 ± 0.56.
The value for RIMPEKGRNSHWMYIRVQER was 1.12 ± 0.58.
RINLYIMFNLLDSGVDLNS registered an amyloid nucleation score of 6.45 ± 0.071.
The value for RIRVI was 0.544 ± 0.63; that for RISRSISVDALMIRAGYLPN was “inactive”.
With RITHWSGKLAFQTIVTISYL, the amyloid nucleation score stood at 1.53 ± 0.41.
Then RKDLEIWYRMRLGEMPLRWM, with -0.165 ± 0.33.
Substance RKGSGSRLKIYVYVTVTKIG registered an amyloid nucleation score of 0.52 ± 0.93.
The value for RKHVVPGKIF was 0.006 ± 0.51.
As for RKSAQYHG, the amyloid nucleation score entry is “inactive”.
Then RLCAQ, with 0.592 ± 0.81; and RLCEFSSKGASL, with -0.115 ± 1.1.
Substance RLDRWKHEMTAVSRCHKARM registered an amyloid nucleation score of 1.24 ± 0.74.
RLFDVMTITYTRSLSSPSCD yielded an amyloid nucleation score of 0.405 ± 1.2.
The value for RLFNTAQGSHSWH was 1.56 ± 0.71.
With RLFTYYTVRNPYVADKFYNR, the amyloid nucleation score was found to be 5.174 ± 0.051.
Then RLGRGKMKGWLSMLCRDCAL, with -0.918 ± 0.65; and RLICGPWNYCCQYKYNHLVL, with 4 ± 0.12.
The value for RLISTGADCEVRISHIRSRN was 0.594 ± 0.48.
The value for RLLSPLY was -0.773 ± 2.1; that for RLNKWWRTKDSYTGL was 0.258 ± 0.41; that for RLNRVSVLLFPTFDLPPFLE was 2.68 ± 0.098.
Take RLRQTGVRLRSQEMFVGEVY: the amyloid nucleation score is -0.378 ± 0.45.
Then RLSIS, with “inactive”; and RLSQLVLVVWTAQGC, with -0.006 ± 0.63.
On to RLSTAMRVEVIGVSCSDARA, for which the amyloid nucleation score was -0.033 ± 0.28.
RLTNELLGVSIRLTSWFTFH showed an amyloid nucleation score of 0.606 ± 0.48.
RLVGGPRRASITKNWYTEK: the amyloid nucleation score is -0.649 ± 0.73.
RLVLSGWNVTVNSILYQGFI registered an amyloid nucleation score of 6.078 ± 0.06.
RLVPVACNPSLNKAVENSFF: the amyloid nucleation score amounted to 0.056 ± 1.5.
Then RLVRCMGTVIINQSHSCDRG, with 0.607 ± 0.64.
The substance RLYFRELSWSGLCMFELVRI registered an amyloid nucleation score of -0.117 ± 0.4.
RLYKFTGF showed an amyloid nucleation score of 1.09 ± 0.37.
The value for RLYLDMSIRPSWASVRFSFG was -1.19 ± 1.9; that for RLYSDAQ was -0.003 ± 0.71; that for RMDFMWLVKI was 4.57 ± 0.056.
Then RMGNQYPRSVKWT, with -0.029 ± 0.33; and RMKLTQLGYSRGNDSLSVLL, with -0.813 ± 1.4.
The value for RMLIYVQFTRRDKVSNPLM was -0.685 ± 0.33; that for RMLQHLVFLAGLNDVFAKGF was 1.43 ± 0.15; that for RMNGLSGRLSTAWQFMYMWC was -0.153 ± 0.34.
For RMSCAHDDHPIYWSCT, the amyloid nucleation score is -0.622 ± 0.98.
The value for RNGSSMGPLSM was -0.258 ± 0.71.
The substance RNIRIR had an amyloid nucleation score of -0.534 ± 0.25.
The value for RNKNFPSKGDLNQGGRNNIK was 0.877 ± 0.4; that for RNLCTWVNRKELLSSEYLLF was -0.249 ± 0.31; that for RNLIGLV was 0.318 ± 0.68.
